In patent publication US20160194402A1 (ADURO BIOTECH HOLDINGS EUROPE B V, published 2016):
Substitutions are numbered along the chain they refer to. Each block holds one molecule with its values, some of them ahead of it.

What was measured:
[1] = biological target: T1, human CD70 (cellularly expressed hCD70) (human, UniProt P32970 1-193); experiment: cell ELISA on CHO-K1.hCD70 cells, goat anti-mouse IgG-HRP
T1 construct: whole, on cells; also called CHO-K1.hCD70; CHO-K1.CD70
T1 sequence (looked up): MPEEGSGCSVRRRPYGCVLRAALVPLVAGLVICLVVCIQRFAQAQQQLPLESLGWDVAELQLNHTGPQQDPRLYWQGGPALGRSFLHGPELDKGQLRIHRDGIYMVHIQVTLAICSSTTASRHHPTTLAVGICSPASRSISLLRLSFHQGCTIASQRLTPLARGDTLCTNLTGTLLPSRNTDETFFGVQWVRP
Experimental: Cell-based ELISA experiments using purified hCD70 antibodies were performed to determine binding activities of hCD70 to cellularly expressed hCD70. In this cell-ELISA, all incubation steps were followed by a wash step with PBST (PBS with 0.01% Tween 20). CHO-K1.hCD70 cells were seeded (40,000 cells/well) in tissue culture plates and incubated overnight at 37° C. The next day, culture medium was removed and cells were incubated for one hour with (dilutions of) purified antibodies at 37° C. Next, cells were washed with PBST and incubated for one hour at 37° C. with 1:1,000 goat-anti-mouse IgG-HRP (Southern Biotechnology, #1030-05). Subsequently, cells were washed 6 times with PBST and anti-hCD70 immunoreactivity was visualized with 100 μl TMB Stabilized Chromagen (Invitrogen, cat. no. SB02). Reactions were stopped with 100 μl 0.5 M H₂SO₄ and absorbances were read at 450 and 620 nm. […] Calculated EC₅₀, representing the concentration at which 50% of the total binding signal is observed are represented in Table 3 using 2F2 anti-hCD70 antibody (Pelicluster) as a reference.

[2] = biological target: recombinant hCD70 (CD70(h)-muCD8 fusion Protein, Ancell, cat. no. ANC-537-030) (mouse; human); experiment: cell-based competition ELISA: biotinylated CD70(h)-muCD8 (0.5 ug/ml) binding to CHO-K1.CD27 cells, Streptavidin-HRP
[3] = biological target: recombinant hCD70 (CD70(h)-muCD8 fusion Protein, Ancell, cat. no. ANC-537-030) (mouse; human); experiment: cell-based competition ELISA: biotinylated CD70(h)-muCD8 (0.5 ug/ml) binding to CHO-K1.hCD27 cells, Streptavidin-HRP (reference antibody, Example 3)
[4] = biological target: T1, human CD70 (cellularly expressed hCD70); experiment: cell ELISA on CHO-K1.hCD70 cells, goat anti-mouse IgG-HRP (reference antibody, Example 3)
[5] = biological target: T2, recombinant hCD70 (CD70(h)-muCD8 fusion Protein, Ancell, cat. no. ANC-537-030) (mouse; human, UniProt P01731 28-196; P32970 39-193, biotin (position not stated; detected with Streptavidin-HRP, bound to streptavidin beads)); experiment: cell-based competition ELISA: biotinylated CD70(h)-muCD8 (0.5 ug/ml) binding to CHO-K1.hCD27 cells, Streptavidin-HRP
T2 construct: Bought fusion protein; also called CD8-hCD70; biotin-hCD8-hCD70 recombinant protein
T2 sequence (P01731 other isoform, or with tags, fused parts or gaps): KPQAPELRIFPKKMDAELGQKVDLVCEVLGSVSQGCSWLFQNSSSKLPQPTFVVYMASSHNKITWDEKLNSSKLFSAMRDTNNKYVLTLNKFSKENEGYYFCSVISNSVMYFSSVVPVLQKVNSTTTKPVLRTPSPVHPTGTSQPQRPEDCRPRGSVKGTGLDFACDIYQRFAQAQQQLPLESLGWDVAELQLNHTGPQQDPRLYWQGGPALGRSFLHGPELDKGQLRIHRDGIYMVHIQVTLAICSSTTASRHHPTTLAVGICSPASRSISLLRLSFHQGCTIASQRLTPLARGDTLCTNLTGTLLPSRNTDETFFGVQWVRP
Experimental: Blocking properties of the purified antibodies were studied using a cell-based competition assay. The CHO-K1.CD27 assay works along the following principles: CHO-K1.CD27 cells were seeded (40,000 cells/well) in a 96-well plate and incubated overnight at 37° C. After medium removal, 50 μl recombinant hCD70 (CD70(h)-muCD8 fusion Protein (Ancell, cat. no. ANC-537-030) (0.5 μg/ml) and 50 μl of different dilutions of purified anti-hCD70 antibodies were added.
After 1 hour incubation at room temperature, the wells were washed 3 times with PBST. Next, 100 μl/well Streptavidin-HRP conjugate (BD Pharmingen, cat. no. 554066) (1:5,000) was added and cells were incubated for one hour at 37° C. After 6 final washes with PBST TMB Stabilized Chromagen (Invitrogen, cat. no. SB02) (100 μl/well) was added. The reaction was stopped by the addition of 100 μl 0.5 M H₂SO₄. Absorbencies were read at […] and 620 nm. Reference antibody: anti-hCD70, clone 2F2 (Pelicluser). […] Calculated IC₅₀ values of hCD70 antibodies and the reference 2F2 anti-hCD70 antibody, which represent the concentration at which half of the inhibition is observed, are presented in Table 3.

[6] = biological target: recombinant hCD70 (CD70(h)-muCD8 fusion Protein, Ancell, cat. no. ANC-537-030) (mouse; human); experiment: as above

EC50 [1]: 0.017 nM
IC50 [2]: 0.96 nM
Molecule: BU69 (antibody)

IC50 [3]: < 2.6 nM
EC50 [4]: 0.13 nM
EC50 [1]: 0.014 nM
IC50 [2]: 0.4 nM
Molecule: 2F2 (CLB70/2) (antibody)

EC50 [1]: 0.035 nM
IC50 [2]: 1.5 nM
Molecule: Ki-24 (antibody)

IC50 [5]: 76 nM
EC50 [1]: 0.15 nM
B1: hCD70.32 (antibody, IgG1, V domains shown)
VH: QVQLQQSGDDLVKPGASVKLSCKASGYTFTSYWINWIKQRPGQGLEWIGRIAPGSGSTYYSKIFKGKATLTVDTSSSTAYIQLSSLSSEDSAVYFCSRGDYGDYWGQGTTLTVSS
VL: DIVMTQSHKFMSTSVGDRVSITCKASQDVGTAVAWYQQKPGESPKLLIYWASTRHTGVPDRLTGSGSGTDFTLTISNVHSEDLADYFCQQYSGYPLTFGDGTKLEL
notes: Mouse monoclonal purified from hybridoma supernatant

IC50 [5]: 109 nM
EC50 [1]: 0.21 nM
B2: hCD70.34 (antibody, IgG1, V domains shown)
VH: QVQLKESGPGLVAPSQSLSITCTVSGFSLTSYGVSWVRQPPGKGLEWLGVIWGDGTTNYHSALISRLSISKDNSKSQVFLKLNSLQIDDTATYYCAKPGDYYGSSYWYFDVWGAGTTVTVSS
VL: DVVLTQTPLSLPVNIGDQASISCKSTKSLLNSDGFTYLDWYLQKPGQSPQLLIYFVSNRFSGVPDRFSGSGSGTDFTLKISRVEADDLGVYYCFQSNYLPYTFGGGTKLEIK
notes: as for B1

EC50 [1]: 0.34 nM
IC50 [6]: > 330 nM
B3: hCD70.39 (antibody, part only; not given: light chain, IgG1, V domains shown, part only)
VH: QGQMQQSGAELVKPGASVKLSCKTSGFTFSSNYISWLKQKPGQSLEWIAWIYAGTGGTNYNQKFTGKAQLTVDTSSSTAYIQFSSLTTEDSAIYYCARLYGYYFDYWGQGTTLTVSS

IC50 [5]: > 330 nM
EC50 [1]: 0.17 nM
B4: hCD70.23 (antibody, IgG1, V domains shown)
VH: QVQLQQSGPEVVRPGVSVKISCKGSGYTFTDYAMHWVKQSHAKSLEWIGVISTYNGNTNYNQKFKGKATMTVDKSSSTAYMELARLTSEDSAIYYCARDYLDYWGQGTTLTVSS
VL: DIVMTQSPSSLTVTAGEKVTMSCKSSQSLLNSGNQKNYLTWYQQKPGQPPKLLIYWASTRESGVPDRFTGSGSGTDFTLTISSVQAEDLAVYYCQNDYSYPFTFGSGTKLEIK
notes: as for B1

IC50 [5]: > 330 nM
EC50 [1]: 0.26 nM
B5: hCD70.21 (antibody, IgG1, V domains shown)
VH: QVQLQQPGAELVKPGTSVKLSCKASGYNFTSYWINWVKLRPGQGLEWIGDIYPGSGSTNYNEKFKSKATLTVDTSSSTAYMQLSSLASEDSALYYCARGHYGSSYGFDYWGQGTTLTVSS
VL: DIVLTQSPASLAVSLGQRATISCRASKSVSTSGYSYMHWYQQKPGQPPKLLIYLASNLESGVPARFSGSGSGTDFTLNIHPVEEEDAATYYCQHSRELPLTFGAGTKLELK
notes: as for B1

IC50 [5]: > 330 nM
EC50 [1]: 0.3 nM
B6: hCD70.36 (antibody, IgG1, V domains shown)
VH: EVQLQQSGPELVKTGASVKISCKASGYSFTGYYMHWVKQSHGKSLEWIGYISCYNGATSYNQKFKGKATFTVDTSSSTAYMQFNSLTSEDSAVYYCARGGNWDVEYAMDYWGQGTSVTVSS
VL: B5 VL with L100F, A104S, L110I
notes: as for B1
